B1: RSPH3 (parent)
chain: MTVKPAKAASLARNLAKRRRTYLG
B2: TRIM35 (parent)
chain: DKELLCCSCQADPRHQGHRVQPVK

Variants of: B1
Assay: protein stability index of a GFP-peptide fusion (GPS, HEK-293T) (PSI 1-6); higher = more stable
Settings: c terminus: a fixed tail appended
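Note: lentivirally expressed fusions sorted by FACS into six bins by GFP to DsRed ratio, PSI derived from sequencing read proportions per bin multiplied by bin number.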

Protein stability index: each site, then its substitutions
M1: L 3.36, G 3.28, C 2.71, K 2.33, Q 3.95, F 2.35, Y 2.55, E 2.46, P 3, D 2.85, I 2.15, H 3.45, N 3.88, W 2.31, S 3.02, A 3.34
A8: E 3.25, C 2.52, F 2.03, D 3.43
P5: K 2.92, V 2.69, L 3.36, M 2.92, Y 2.14, G 2.75, C 2.05, R 2.48, D 3.8, A 2.93, H 2.91, N 3.24, I 1.73, T 3.29, F 1.52, Q 2.63, E 2.52, S 2.56, W 2.48
T2: F 1.95, Q 2.61, N 3.75, Y 2.36, S 2.96, R 2.74, V 2.5, H 3.44, D 2.88, K 2.81, P 3.41, A 2.69, I 2.45, W 1.58, C 2.16, G 3.28, L 2.17, E 2.98, M 2.34
K4: A 2, P 2.94, D 2.97, M 3.46, L 2.13, N 2.69, T 3.38, Q 3.95, W 2.25, H 3.7, Y 2.58, C 2.8, F 2.34, E 2.1, S 3.36, I 1.87, V 2.6
V3: N 3.22, L 2.75, K 3.29, F 3.79, R 2.98, D 3.02, C 3.73, S 2.62, I 3.59, T 3.5, Y 2.68, A 2.85, M 2.31, E 3.22, H 3.23
A6: S 3, P 3.92, L 1.63, M 2.27, K 2.67, R 2.19, W 1.91, D 1.79, Y 2.93, N 2.88, H 3.38, V 2.89, Q 3.58, T 2.99, E 3.24, I 2.43, F 3.04, C 2.72, G 3.13
K7: V 2.44, Y 2.23, M 2.93, I 2.46, N 3.21, A 3.46, L 3.62, G 3.13, F 2.2, C 2.56, T 3.06, E 3.59, P 3.18, H 3.82, R 2.96, Q 3.88, D 3.25, W 3.15, S 2.66

Variants of: B2
Assay: as above
Settings: c terminus: a fixed tail appended

Protein stability index: each site, then its substitutions
V23: I 4.25, N 3.8, M 3.05, G 3.87, S 3.36, A 3.88, C 4, H 3.23, Y 2.96, Q 4.13, P 4.06, K 4.55, F 3.07, D 4.19, L 4.02, T 3.4, W 2.19, E 3.92
K24: R 2.82, N 3.04, Q 3.77, M 3.29, I 2.73, T 3.31, V 2.92, S 3.52, P 3.46, A 2.87, G 3.63, H 3.38, F 3.79, L 2.65, Y 2.79, E 3.81, C 3.18, D 4.05, W 2.53
P22: Y 2.92, V 2.68

Source: the supplement of paper PMC10567573
